Assay results reported in article PMC3739435 (Peptides, 2013).
Square brackets hold non-standard residues; d marks the D form. Ends that are not written are not given here. * marks the point of attachment. Benzoyl(4-benzoyl) = O=C(c1ccccc1)c1ccc(C(=O)*)cc1; Bpa = N[C@@H](Cc1ccc(C(=O)c2ccccc2)cc1)C(=O)O; Phe(NO2) = nitro-phenylalanine (NO2-Phe); Desaminotyrosyl = O=C(CCc1ccc(O)cc1)*; Nle = CCCC[C@H](N)C(=O)O

T1: hemagglutinin-tagged wild type human type 2 CCK receptor (human, UniProt P32239 1-447)
T1 sequence (looked up): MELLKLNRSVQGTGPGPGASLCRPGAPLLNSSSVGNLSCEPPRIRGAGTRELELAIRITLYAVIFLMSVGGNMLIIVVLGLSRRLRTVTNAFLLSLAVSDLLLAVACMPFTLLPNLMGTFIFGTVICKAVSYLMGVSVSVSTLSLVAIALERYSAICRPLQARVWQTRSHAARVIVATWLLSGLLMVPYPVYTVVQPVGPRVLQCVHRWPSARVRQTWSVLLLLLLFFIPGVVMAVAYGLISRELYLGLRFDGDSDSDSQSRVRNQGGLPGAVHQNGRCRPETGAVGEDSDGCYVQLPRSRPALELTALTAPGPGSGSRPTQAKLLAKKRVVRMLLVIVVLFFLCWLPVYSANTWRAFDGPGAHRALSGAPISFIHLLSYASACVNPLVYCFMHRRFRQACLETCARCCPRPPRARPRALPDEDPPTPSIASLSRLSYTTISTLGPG


What was measured:
[1] = target: T1, hemagglutinin-tagged wild type human …; assay: radioligand binding
[2] = target: T1, hemagglutinin-tagged wild type human …; assay: cell-based or functional assay

Binder | IC50 [1] [µM] | intracellular calcium responses in CHO-CCK2R cells, EC50 [2] [µM]
[Desaminotyrosyl]GDY[Nle]GWK(Benzoyl(4-benzoyl))DF (ends and bridges not checked) [(des-amino-Tyr)-Gly-[(Nle28,(BzBz)Lys31)CCK-26-33]] | > 1 | –
[Desaminotyrosyl]G[Phe(NO2)]Y[Nle]GW[Nle]DF (ends and bridges not checked) [(des-amino-Tyr)-Gly-[(NO2-Phe26,Nle28,Nle31)CCK-26-33]] | – | > 1
[Desaminotyrosyl]GDY[Nle]G[Bpa][Nle]DF (ends and bridges not checked) [(des-amino-Tyr)-Gly-[(Nle28,Bpa30,Nle31)CCK-26-33]] | > 1 | –
[Desaminotyrosyl]GDY[Nle]GW[Nle][Bpa]F (ends and bridges not checked) [(des-amino-Tyr)-Gly-[(Nle28,Nle31,Bpa32)CCK-26-33]] | > 1 | > 1
